According to US20050164345A1, “Synthesis of human procollagens and collagens in recombinant DNA systems” (priority 1992, published 2005):
Read-outs that look alike come from different tables or passages of the source.

Tests used:
[1] = protease digestion and thermal stability of recombinant type II human collagen from insect cells; format: physicochemical; details: expressed in recombinant insect cells
Procedure: Purification and analysis of Collagen Types I and II. Collagens types I and II were purified as described supra.
The thermal stability of the recombinant type II human collagen expressed from the recombinant insect cells was measured and compared with native type I human collagen. […] The Tm of the recombinant type II collagen was up to about 40° C.

[2] = thermal stability of type III collagen produced in insect cells, trypsin/chymotrypsin digestion after heating to various temperatures; format: physicochemical
Procedure: Other aliquots were studied by a radioimmuno-assay for the trimeric N-propeptide of human type III procollagen (Farmos Diagnostica) and a colorimetric method for 4-hydroxyproline (Kivirikko et al., Anal. Biochem. 19: 249-255 (1967)). Still further aliquots were digested with pepsin for 1 h at 22° C. (Bruckner et al., Anal. Biochem. 110: 360-368 (1981)), and the thermal stability of the pepsin-resistant recombinant type III collagen was measured by rapid digestion with a mixture of trypsin and chymotrypsin.
The thermal stability of the type III collagen expressed under different cell culture conditions was studied by using digestion with a mixture of trypsin and chymotrypsin after heating to various temperatures (Bruckner, et al., Anal. Biochem. 110: 360-368 (1981)). High Five cells were infected with viruses coding for the proα1 (III) chains and the a and β subunits of human prolyl 4-hydroxylase. The cells were harvested 72 h after infection, homogenized in a buffer containing 0.2% Triton X-100 and centrifuged. In these experiments, ascorbate was either added daily to the cell culture medium as usual or omitted during the infection. The Triton X-100 soluble proteins were first digested with pepsin for 1 h at 22° C. to convert type III procollagen to type III collagen (Pihlajaniemi et al., EMBO J. 6: 643-649 (1987)), and the trypsin/chymotrypsin digestion was then performed for aliquots of the pepsin-treated samples. The samples were then electrophoresed on 8% SDS-PAGE and analyzed by Coomassie staining. FIG. 11 provides the results of this thermal stability for a variety of collagen products. As set forth in panel A, the cells were infected only with the virus coding for the proα1 (III) chains, and ascorbate was omitted from the culture medium; panel B, the cells were infected only with the virus coding for the proα1 (III) chains, and ascorbate was present in the culture medium as usually; panel C, the cells were coinfected with viruses coding for the proα1 (III) chains, and the α and β subunits of prolyl 4-hydroxylase, but ascorbate was omitted from the culture medium; and panel D, the cells were infected with the three viruses, and ascorbate was present in the culture medium. […] The arrows show the position of the α1 (III) chains. […] (FIG. 11A). […] In contrast, when the proα1 (III) chains were produced in the presence of both prolyl 4-hydroxylase and ascorbate, the Tm of type III collagen was increased considerably, being at about 38-40° C. (FIG. 11D).

[3] = CD spectrum analysis of purified recombinant type III collagen; format: physicochemical
Procedure: Type III procollagen was expressed in High Five cells cultured either as monolayers or in suspension in shaker flasks. The cells were harvested 72 h after infection, homogenized in a buffer containing 0.1% Triton X-100 and centrifuged, and the supernatant of the cell homogenate was passed through a DEAE cellulose column to remove nucleic acids. The flow through fractions containing the type III procollagen were pooled and digested with pepsin. This converted the type III procollagen to type III collagen and digested most of the noncollagenous proteins. The type III collagen was then concentrated by salt precipitation, solubilized and treated with pepsin as above. The type III collagen was finally separated from pepsin and other remaining contaminants by gel filtration on a Sephacryl S 500-HR column. The fractions containing the type III collagen were pooled, dialyzed and lyophilized. The purified type III collagen was analyzed by 5% SDS-PAGE under reducing (FIG. 9, lane 2) and nonreducing (FIG. 9, lane 3) conditions. […] Amino acid and CD spectrum analysis were performed on the purified type III collagen. The amino acid composition of the recombinant type III obtained corresponded well with the amino acid composition reported for human type III collagen. […] The melting temperature of the recombinant type III collagen determined by CD spectrum analysis was 40° C.

prolyl 4-hydroxylase = assay: Km values of prolyl 4-hydroxylase, assay based on decarboxylation of 2-oxo[1-14C]glutarate; format: biochemical, human; details: other substrates held constant
Procedure: When the time course of protein expression was examined, Sf9 cells infected with recombinant viruses were labeled with [^35S]methionine (10 μCi/μl; Amersham; 1 Ci=[…]) for 2 hours at various time points between 24 and 50 hours after infection and collected for analysis by SDS/10% PAGE. To determine the maximal accumulation of recombinant protein, cells were harvested at various times from 24 to 96 hours after infection and analyzed on by SDS/10% PAGE. Both the 0.1% Triton X-100- and 1% SDS-soluble fractions of the cells were analyzed. Prolyl 4-hydroxylase activity was assayed by a method based on the decarboxylation of 2-oxo[1-^14C^−]glutarate (Kivirikko et al., Methods in Enzymology 82: 245-304 (1982)). The Km values were determined by varying the concentrations of one substrate in the presence of fixed concentration of the second, while the concentrations of the other substrates were held constant (Myllyla et al., Eur. J. Biochem. 80: 349-357 (1977)). Protein disulfide-isomerase activity of the β subunit was measured by glutathione: insulin transhydrogenase assay (Carmichael et al., J. Biol. Chem. 252: 7163-7167 (1977)). Western blot analysis was performed using a monoclonal antibody, 5B5, to the β subunit of human prolyl 4-hydroxylase (Hoyhtya et al., Eur. J. Biochem. 141: 477-482 (1984)). Prolyl 4-hydroxylase was purified by a procedure consisting of poly (L-proline) affinity chromatography, DEAE-cellulose chromatography, and gel filtration (Kivirikko et al., Methods in Enzymology 144: 96-114 (1987)).
Table 2 presented data on the enzymic activity of the recombinant enzyme. The Km values were determined by varying the concentration of one substrate in the presence of fixed concentrations of the second while the concentration of the other substrates were held constant.

[4] = substrate 2-oxoglutarate, read-out: Km value, 2-oxoglutarate
[5] = substrate (Pro—Pro-Gly)10, read-out: Km value, (Pro—Pro-Gly)10
[6] = substrate Fe^+2, read-out: Km value, Fe^+2
[7] = substrate ascorbate, read-out: Km value, ascorbate

Molecule | Km (prolyl 4-hydroxylase; [4]) [µM] | Km (prolyl 4-hydroxylase; [5]) [µM] | Km (prolyl 4-hydroxylase; [6]) [µM] | Km (prolyl 4-hydroxylase; [7]) [µM] | further results
recombinant type II collagen: recombinant type II human collagen expressed from recombinant insect cells | – | – | – | – | Tm of the recombinant type II collagen [1]: up to 40 °C; trypsin and chymotrypsin digestion [1]: resistance to trypsin and chymotrypsin digestion
recombinant type III collagen: recombinant human type III collagen produced in insect cells, pepsin-converted from type III procollagen | – | – | – | – | effect on the thermal stability ([2]; High Five cells, either ascorbate or prolyl 4-hydroxylase present without the other (FIG. 11B and 11C)): virtually no increasing effect; Tm of type III collagen ([2]; High Five cells, proα1 (III) chains expressed without prolyl 4-hydroxylase and ascorbate (FIG. 11A)): 32-34 °C; Tm of type III collagen ([2]; High Five cells, proα1 (III) chains produced in the presence of both prolyl 4-hydroxylase and ascorbate (FIG. 11D)): 38-40 °C; Tm of the triple helices by CD spectra compared with authentic type III collagen ([3]; purified human type III collagen produced in insect cells): virtually identical; melting temperature determined by CD spectrum analysis ([3]; purified type III collagen from High Five cells): 40 °C
α592β2: recombinant human prolyl 4-hydroxylase tetramer from Sf9 cells infected with α59 virus and β virus | 25 | 18 | 4 | 330 | –
α582β2: recombinant human prolyl 4-hydroxylase tetramer from Sf9 cells infected with α58 virus and β virus | 22 | 18 | 4 | 330 | –
proα1 chains of type III procollagen: type III procollagen expressed in insect cells without recombinant prolyl 4-hydroxylase (protein, UniProt P02461 24-1466, looked up, pro-form, type III procollagen expressed in insect cells without recombinant prolyl 4-hydroxylase) pro-form: QQEAVEGGCSHLGQSYADRDVWKPEPCQICVCDSGSVLCDDIICDDQELDCPNPEIPFGECCAVCPQPPTAPTRPPNGQGPQGPKGDPGPPGIPGRNGDPGIPGQPGSPGSPGPPGICESCPTGPQNYSPQYDSYDVKSGVAVGGLAGYPGPAGPPGPPGPPGTSGHPGSPGSPGYQGPPGEPGQAGPSGPPGPPGAIGPSGPAGKDGESGRPGRPGERGLPGPPGIKGPAGIPGFPGMKGHRGFDGRNGEKGETGAPGLKGENGLPGENGAPGPMGPRGAPGERGRPGLPGAAGARGNDGARGSDGQPGPPGPPGTAGFPGSPGAKGEVGPAGSPGSNGAPGQRGEPGPQGHAGAQGPPGPPGINGSPGGKGEMGPAGIPGAPGLMGARGPPGPAGANGAPGLRGGAGEPGKNGAKGEPGPRGERGEAGIPGVPGAKGEDGKDGSPGEPGANGLPGAAGERGAPGFRGPAGPNGIPGEKGPAGERGAPGPAGPRGAAGEPGRDGVPGGPGMRGMPGSPGGPGSDGKPGPPGSQGESGRPGPPGPSGPRGQPGVMGFPGPKGNDGAPGKNGERGGPGGPGPQGPPGKNGETGPQGPPGPTGPGGDKGDTGPPGPQGLQGLPGTGGPPGENGKPGEPGPKGDAGAPGAPGGKGDAGAPGERGPPGLAGAPGLRGGAGPPGPEGGKGAAGPPGPPGAAGTPGLQGMPGERGGLGSPGPKGDKGEPGGPGADGVPGKDGPRGPTGPIGPPGPAGQPGDKGEGGAPGLPGIAGPRGSPGERGETGPPGPAGFPGAPGQNGEPGGKGERGAPGEKGEGGPPGVAGPPGGSGPAGPPGPQGVKGERGSPGGPGAAGFPGARGLPGPPGSNGNPGPPGPSGSPGKDGPPGPAGNTGAPGSPGVSGPKGDAGQPGEKGSPGAQGPPGAPGPLGIAGITGARGLAGPPGMPGPRGSPGPQGVKGESGKPGANGLSGERGPPGPQGLPGLAGTAGEPGRDGNPGSDGLPGRDGSPGGKGDRGENGSPGAPGAPGHPGPPGPVGPAGKSGDRGESGPAGPAGAPGPAGSRGAPGPQGPRGDKGETGERGAAGIKGHRGFPGNPGAPGSPGPAGQQGAIGSPGPAGPRGPVGPSGPPGKDGTSGHPGPIGPPGPRGNRGERGSEGSPGHPGQPGPPGPPGAPGPCCGGVGAAAIAGIGGEKAGGFAPYYGDEPMDFKINTDEIMTSLKSVNGQIESLISPDGSRKNPARNCRDLKFCHPELKSGEYWVDPNQGCKLDAIKVFCNMETGETCISANPLNVPRKHWWTDSSAEKKHVWFGESMDGGFQFSYGNPELPEDVLDVHLAFLRLLSSRASQNITYHCKNSIAYMDQASGNVKKALKLMGSNEGEFKAEGNSKFTYTVLEDGCTKHTGEWSKTVFEYRTRKAVRLPIVDIAPYDIGGPDQEFGVDVGPVCFL | – | – | – | – | Tm of the triple helices, lower than procollagen produced in the presence of recombinant prolyl 4-hydroxylase ([2]; insect cells, without recombinant prolyl 4-hydroxylase): about 6 °C
